Measured values as given in paper PMC3290569, “Macro-to-Micro Structural Proteomics: Native Source Proteins for High-Throughput Crystallization” (PLoS ONE, 2012).

B1: Dihydrodipicolinate synthase (enzyme, Escherichia coli, UniProt P0A6L2 1-292, looked up)
chain: MFTGSIVAIVTPMDEKGNVCRASLKKLIDYHVASGTSAIVSVGTTGESATLNHDEHADVVMMTLDLADGRIPVIAGTGANATAEAISLTQRFNDSGIVGCLTVTPYYNRPSQEGLYQHFKAIAEHTDLPQILYNVPSRTGCDLLPETVGRLAKVKNIIGIKEATGNLTRVNQIKELVSDDFVLLSGDDASALDFMQLGGHGVISVTANVAARDMAQMCKLAAEGHFAEARVINQRLMPLHNKLFVEPNPIPVKWACKELGLVATDTLRLPMTPITDSGRETVRAALKHAGLL
notes: dihydrodipicolinate synthase, Escherichia coli, native source protein; identified with PDB 1DHP; the PDB entry is the previously deposited structure that identified the protein; the crystallised protein is the native one; source: purified from E. coli DH5α cells (whole-proteome fractionation)
B2: 5-keto-4-deoxyuronate isomerase (enzyme, Escherichia coli, UniProt Q46938 1-278, looked up)
chain: MDVRQSIHSAHAKTLDTQGLRNEFLVEKVFVADEYTMVYSHIDRIIVGGIMPITKTVSVGGEVGKQLGVSYFLERRELGVINIGGAGTITVDGQCYEIGHRDALYVGKGAKEVVFASIDTGTPAKFYYNCAPAHTTYPTKKVTPDEVSPVTLGDNLTSNRRTINKYFVPDVLETCQLSMGLTELAPGNLWNTMPCHTHERRMEVYFYFNMDDDACVFHMMGQPQETRHIVMHNEQAVISPSWSIHSGVGTKAYTFIWGMVGENQVFDDMDHVAVKDLR
notes: 5-keto-4-deoxyuronate isomerase, Escherichia coli, native source protein; identified with PDB 1XRU; the PDB entry is the previously deposited structure that identified the protein; the crystallised protein is the native one; source: purified from E. coli DH5α cells (whole-proteome fractionation)
B3: Inorganic pyrophosphatase (enzyme, Escherichia coli, UniProt P0A7A9 1-176, looked up)
chain: MSLLNVPAGKDLPEDIYVVIEIPANADPIKYEIDKESGALFVDRFMSTAMFYPCNYGYINHTLSLDGDPVDVLVPTPYPLQPGSVIRCRPVGVLKMTDEAGEDAKLVAVPHSKLSKEYDHIKDVNDLPELLKAQIAHFFEHYKDLEKGKWVKVEGWENAEAAKAEIVASFERAKNK
notes: inorganic pyrophosphatase, Escherichia coli, native source protein; identified with PDB 1IPW; the PDB entry is the previously deposited structure that identified the protein; the crystallised protein is the native one; source: purified from E. coli DH5α cells (whole-proteome fractionation)
B4: Catalase HPII (enzyme, Escherichia coli, UniProt P21179 1-753, looked up)
chain: MSQHNEKNPHQHQSPLHDSSEAKPGMDSLAPEDGSHRPAAEPTPPGAQPTAPGSLKAPDTRNEKLNSLEDVRKGSENYALTTNQGVRIADDQNSLRAGSRGPTLLEDFILREKITHFDHERIPERIVHARGSAAHGYFQPYKSLSDITKADFLSDPNKITPVFVRFSTVQGGAGSADTVRDIRGFATKFYTEEGIFDLVGNNTPIFFIQDAHKFPDFVHAVKPEPHWAIPQGQSAHDTFWDYVSLQPETLHNVMWAMSDRGIPRSYRTMEGFGIHTFRLINAEGKATFVRFHWKPLAGKASLVWDEAQKLTGRDPDFHRRELWEAIEAGDFPEYELGFQLIPEEDEFKFDFDLLDPTKLIPEELVPVQRVGKMVLNRNPDNFFAENEQAAFHPGHIVPGLDFTNDPLLQGRLFSYTDTQISRLGGPNFHEIPINRPTCPYHNFQRDGMHRMGIDTNPANYEPNSINDNWPRETPPGPKRGGFESYQERVEGNKVRERSPSFGEYYSHPRLFWLSQTPFEQRHIVDGFSFELSKVVRPYIRERVVDQLAHIDLTLAQAVAKNLGIELTDDQLNITPPPDVNGLKKDPSLSLYAIPDGDVKGRVVAILLNDEVRSADLLAILKALKAKGVHAKLLYSRMGEVTADDGTVLPIAATFAGAPSLTVDAVIVPCGNIADIADNGDANYYLMEAYKHLKPIALAGDARKFKATIKIADQGEEGIVEADSADGSFMDELLTLMAAHRVWSRIPKIDKIPA
notes: catalase HPII, Escherichia coli, native source protein; identified with PDB 1GG9; the PDB entry is the previously deposited structure that identified the protein; the crystallised protein is the native one; source: purified from E. coli DH5α cells (whole-proteome fractionation)
B5: Adenylosuccinate synthetase (enzyme, Escherichia coli, UniProt P0A7D4 1-432, looked up)
chain: MGNNVVVLGTQWGDEGKGKIVDLLTERAKYVVRYQGGHNAGHTLVINGEKTVLHLIPSGILRENVTSIIGNGVVLSPAALMKEMKELEDRGIPVRERLLLSEACPLILDYHVALDNAREKARGAKAIGTTGRGIGPAYEDKVARRGLRVGDLFDKETFAEKLKEVMEYHNFQLVNYYKAEAVDYQKVLDDTMAVADILTSMVVDVSDLLDQARQRGDFVMFEGAQGTLLDIDHGTYPYVTSSNTTAGGVATGSGLGPRYVDYVLGILKAYSTRVGAGPFPTELFDETGEFLCKQGNEFGATTGRRRRTGWLDTVAVRRAVQLNSLSGFCLTKLDVLDGLKEVKLCVAYRMPDGREVTTTPLAADDWKGVEPIYETMPGWSESTFGVKDRSGLPQAALNYIKRIEELTGVPIDIISTGPDRTETMILRDPFDA
notes: adenylosuccinate synthetase, Escherichia coli, native source protein; identified with PDB 1CG1; the PDB entry is the previously deposited structure that identified the protein; the crystallised protein is the native one; source: purified from E. coli DH5α cells (whole-proteome fractionation)
B6: Ariginosuccinate lyase (enzyme, Escherichia coli, UniProt P11447 1-457, looked up)
chain: MALWGGRFTQAADQRFKQFNDSLRFDYRLAEQDIVGSVAWSKALVTVGVLTAEEQAQLEEALNVLLEDVRARPQQILESDAEDIHSWVEGKLIDKVGQLGKKLHTGRSRNDQVATDLKLWCKDTVSELLTANRQLQSALVETAQNNQDAVMPGYTHLQRAQPVTFAHWCLAYVEMLARDESRLQDALKRLDVSPLGCGALAGTAYEIDREQLAGWLGFASATRNSLDSVSDRDHVLELLSAAAIGMVHLSRFAEDLIFFNTGEAGFVELSDRVTSGSSLMPQKKNPDALELIRGKCGRVQGALTGMMMTLKGLPLAYNKDMQEDKEGLFDALDTWLDCLHMAALVLDGIQVKRPRCQEAAQQGYANATELADYLVAKGVPFREAHHIVGEAVVEAIRQGKPLEDLPLSELQKFSQVIDEDVYPILSLQSCLDKRAAKGGVSPQQVAQAIAFAQARLG
notes: argininosuccinate lyase (printed: Ariginosuccinate lyase), Escherichia coli, native source protein; identified with PDB 1TJ7; the PDB entry is the previously deposited structure that identified the protein; the crystallised protein is the native one; also called Arginosuccinate lyase; source: purified from E. coli DH5α cells (whole-proteome fractionation)
B7: heat shock protein 31 (HSP31) (natural protein, Escherichia coli, UniProt P31658 1-283, looked up)
chain: MTVQTSKNPQVDIAEDNAFFPSEYSLSQYTSPVSDLDGVDYPKPYRGKHKILVIAADERYLPTDNGKLFSTGNHPIETLLPLYHLHAAGFEFEVATISGLMTKFEYWAMPHKDEKVMPFFEQHKSLFRNPKKLADVVASLNADSEYAAIFVPGGHGALIGLPESQDVAAALQWAIKNDRFVISLCHGPAAFLALRHGDNPLNGYSICAFPDAADKQTPEIGYMPGHLTWYFGEELKKMGMNIINDDITGRVHKDRKLLTGDSPFAANALGKLAAQEMLAAYAG
notes: Hsp31, Escherichia coli, native source protein; identified with PDB 1N57; the PDB entry is the previously deposited structure that identified the protein; the crystallised protein is the native one; source: purified from E. coli DH5α cells (whole-proteome fractionation)
B8: phosphoserine aminotransferase (enzyme, Escherichia coli, UniProt P23721 1-362, looked up)
chain: MAQIFNFSSGPAMLPAEVLKQAQQELRDWNGLGTSVMEVSHRGKEFIQVAEEAEKDFRDLLNVPSNYKVLFCHGGGRGQFAAVPLNILGDKTTADYVDAGYWAASAIKEAKKYCTPNVFDAKVTVDGLRAVKPMREWQLSDNAAYMHYCPNETIDGIAIDETPDFGADVVVAADFSSTILSRPIDVSRYGVIYAGAQKNIGPAGLTIVIVREDLLGKANIACPSILDYSILNDNGSMFNTPPTFAWYLSGLVFKWLKANGGVAEMDKINQQKAELLYGVIDNSDFYRNDVAKANRSRMNVPFQLADSALDKLFLEESFAAGLHALKGHRVVGGMRASIYNAMPLEGVKALTDFMVEFERRHG
notes: phosphoserine aminotransferase, Escherichia coli, native source protein; identified with PDB 1BJN; the PDB entry is the previously deposited structure that identified the protein; the crystallised protein is the native one; source: purified from E. coli DH5α cells (whole-proteome fractionation)

Biological target: the molecule itself
Test: crystal structure; native source E. coli proteins already in the PDB, identified and solved by brute-force molecular replacement, not refined except to confirm the solution; oligomer seen in the crystal

Binding result, binds:
B1
B2
B3
B4
B5
B6
B7
B8
